Laboratory results: PMC7672466, “Biophysical analysis of Pseudomonas-phage PaP3 small terminase suggests a mechanism for sequence-specific DNA-binding by lateral interdigitation”

Columns and labels:
[1] = molecular target: Pseudomonas phage NV1 small terminase subunit (TerS) (Pseudomonas phage NV1); test: crystal structure; TerS from heparin peak 2 at 7.5 mg/ml, vapor diffusion hanging drop; PaP3 at 3.0 Å, NV1 at 3.95 Å
[2] = molecular target: Pseudomonas phage NV1 small terminase subunit (TerS) (Pseudomonas phage NV1); test: SEC-SAXS; TerS from heparin peak 2; PaP3 at 1.7 mg/ml, NV1 at 2.0 mg/ml; Superdex 200 10/300 GL; 20 mM Tris-HCl pH 8.0, 150 mM NaCl, 2.5% glycerol, 0.5 mM TCEP; 4 °C
[3] = molecular target: Pseudomonas phage NV1 small terminase subunit (TerS) (Pseudomonas phage NV1); test: AUC; sedimentation velocity; TerS from heparin peak 2 (850 mM NaCl); 40 000 rpm, 6 °C; 20 mM Tris-HCl pH 7.5, 150 mM NaCl, 3 mM DTT, 2.5% glycerol; 1.3-2.2 mg/ml
[4] = molecular target: Pseudomonas phage LUZ24 small terminase subunit (TerS) (Pseudomonas phage LUZ24); test: as above
[5] = molecular target: Pseudomonas phage PaP3 small terminase subunit (TerS) (Pseudomonas phage PaP3); test: crystal structure; TerS from heparin peak 2 at 7.5 mg/ml, vapor diffusion hanging drop; PaP3 at 3.0 Å, NV1 at 3.95 Å
[6] = molecular target: Pseudomonas phage PaP3 small terminase subunit (TerS) (Pseudomonas phage PaP3); test: SEC-SAXS; TerS from heparin peak 2; PaP3 at 1.7 mg/ml, NV1 at 2.0 mg/ml; Superdex 200 10/300 GL; 20 mM Tris-HCl pH 8.0, 150 mM NaCl, 2.5% glycerol, 0.5 mM TCEP; 4 °C
[7] = molecular target: Pseudomonas phage PaP3 small terminase subunit (TerS) (Pseudomonas phage PaP3); test: AUC; sedimentation velocity; TerS from heparin peak 2 (850 mM NaCl); 40 000 rpm, 6 °C; 20 mM Tris-HCl pH 7.5, 150 mM NaCl, 3 mM DTT, 2.5% glycerol; 1.3-2.2 mg/ml
[8] = molecular target: T1, PaP3 TerS WT (small terminase, peak 2) (Pseudomonas phage PaP3, UniProt Q8H9R5 1-152); test: EMSA; agarose gel, 0-40 uM TerS; EMSA: incubation 37 C 30 min (binding buffer not stated; proteins in GF buffer 20 mM Tris-HCl pH 7.5, 150 mM NaCl, 5 mM bME, 2.5% glycerol); 1% agarose or 4-16% acrylamide gel, 0.5x TBE, 4 C; conditions: protein: recombinant; tags: GST removed by PreScission protease; chain copies: 9; label: 5' Cy3 on both strands; blunt
T1 sequence: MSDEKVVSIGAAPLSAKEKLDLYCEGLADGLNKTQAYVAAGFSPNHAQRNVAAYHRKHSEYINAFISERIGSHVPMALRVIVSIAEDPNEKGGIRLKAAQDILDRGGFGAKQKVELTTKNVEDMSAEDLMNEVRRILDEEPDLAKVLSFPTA

Work on “Pseudomonas phage NV1 small terminase subunit (TerS) (natural protein)” yielded a stoichiometry N [1] of 9, a stoichiometry N [2] of 9 and a stoichiometry N [3] of 9 mer.

In the case of “Pseudomonas phage LUZ24 small terminase subunit (TerS) (natural protein)”, the stoichiometry N [4] is reported as 9 mer.

With “Pseudomonas phage PaP3 small terminase subunit (TerS) (natural protein)” the stoichiometry N [5] was 9, the stoichiometry N [6] was 9 and the stoichiometry N [7] was 9 mer.

B1: Cy3-cos (dsDNA)
DNA 1: GCCGGCCCCTTTCCGCGTTA
DNA 2: TAACGCGGAAAGGGGCCGGC
B1: binds [8].
